1 molecule from patent publication US20230293738A1 (Y MABS THERAPEUTICS, published 2023) can be followed below.

Where “and” joins values, the source holds several entries; their conditions need not be identical. Equal entries are not always repeated.

The target in assay [1] is recombinant human B7-H3 (Example 3) (human) (UniProt Q5ZPR3). Description: SPR, triplicate.
The target in assay [2] is T1, recombinant mouse B7-H3 (mouse, UniProt Q8VE98 29-244, limits assumed).
T1 sequence (looked up): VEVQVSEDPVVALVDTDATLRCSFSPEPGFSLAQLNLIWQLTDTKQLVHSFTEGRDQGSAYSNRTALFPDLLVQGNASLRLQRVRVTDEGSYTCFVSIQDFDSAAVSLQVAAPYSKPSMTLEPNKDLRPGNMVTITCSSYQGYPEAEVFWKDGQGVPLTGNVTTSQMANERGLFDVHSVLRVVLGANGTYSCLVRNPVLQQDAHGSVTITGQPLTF
Briefly: SPR, triplicate.

For assay [3], the target named is T2, recombinant monkey B7-H3 (monkey).
T2 chain: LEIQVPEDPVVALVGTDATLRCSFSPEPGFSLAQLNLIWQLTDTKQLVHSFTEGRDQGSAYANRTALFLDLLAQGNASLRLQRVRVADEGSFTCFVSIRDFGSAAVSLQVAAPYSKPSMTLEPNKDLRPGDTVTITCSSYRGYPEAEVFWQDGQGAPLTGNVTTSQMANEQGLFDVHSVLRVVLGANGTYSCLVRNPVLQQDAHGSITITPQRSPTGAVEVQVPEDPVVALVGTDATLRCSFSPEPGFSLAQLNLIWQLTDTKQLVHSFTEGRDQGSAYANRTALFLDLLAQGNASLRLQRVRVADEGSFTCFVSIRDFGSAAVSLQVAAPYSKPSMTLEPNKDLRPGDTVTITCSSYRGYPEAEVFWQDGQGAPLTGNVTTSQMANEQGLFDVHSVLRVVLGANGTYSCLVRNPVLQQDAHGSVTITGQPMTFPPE
Briefly: SPR, triplicate.

For assay [4], the target named is T3, human 4Ig-B7H3 (B7H3-4Ig-His) (human, UniProt Q5ZPR3 29-466).
T3 construct: Recombinant His-tagged protein immobilised on a CM5 chip; also called 41g-B7H3; human 4Ig-B7-H3 (dominant isoform); not shown: His tag
T3 sequence: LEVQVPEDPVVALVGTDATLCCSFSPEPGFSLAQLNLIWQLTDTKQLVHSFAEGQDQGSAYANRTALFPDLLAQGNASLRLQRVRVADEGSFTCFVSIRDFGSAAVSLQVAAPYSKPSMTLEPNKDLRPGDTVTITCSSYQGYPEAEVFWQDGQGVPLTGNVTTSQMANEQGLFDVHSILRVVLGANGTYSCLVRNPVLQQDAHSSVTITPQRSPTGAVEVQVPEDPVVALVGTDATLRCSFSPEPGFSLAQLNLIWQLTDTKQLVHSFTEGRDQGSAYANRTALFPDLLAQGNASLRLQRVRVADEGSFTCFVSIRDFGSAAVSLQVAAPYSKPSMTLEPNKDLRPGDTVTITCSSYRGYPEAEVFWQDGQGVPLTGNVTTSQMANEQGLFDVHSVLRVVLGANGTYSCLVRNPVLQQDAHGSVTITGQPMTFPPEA
Briefly: SPR, Biacore T200, 4Ig-B7H3-His on CM5 chip, 1:1 fit. As for the experimental part:
(§1) Both human B7H3 41g and 21g proteins were dissolved in PBS (Phosphate-Buffered Saline) to make 0.1 mg/ml stock solution and stored in −80° C. B7-H3 proteins were immobilized onto the CM5 sensor chip using Amine Coupling Kit. Both proteins were diluted to 10 ug/ml with 10 mM Sodium acetate, pH 5.0. […] A blank immobilized surface was used as a control
The data were analyzed by the 1:1 fitting model and default parameter setting for the rate constants using the Biacore T200 Evaluation Software, and the apparent association on rate constant (kon, ka), dissociation off rate constant (koff, kd) and equilibrium dissociation constant (KD=kd/ka) were calculated.

In assay [5] the target is T4, human 2Ig-B7H3 (B7H3-2Ig-His) (human, UniProt Q5ZPR3 29-466).
T4 construct: Recombinant His-tagged protein immobilised on a CM5 chip; also called 21g-B7H3; B7H3-21g-His; not shown: His tag
T4 sequence: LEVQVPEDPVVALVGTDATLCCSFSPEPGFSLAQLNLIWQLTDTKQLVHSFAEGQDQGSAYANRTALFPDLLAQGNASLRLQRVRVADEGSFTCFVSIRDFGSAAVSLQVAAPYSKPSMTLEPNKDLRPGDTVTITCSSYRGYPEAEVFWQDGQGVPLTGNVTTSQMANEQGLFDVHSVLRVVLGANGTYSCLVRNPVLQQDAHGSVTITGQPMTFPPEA
Description: SPR, Biacore T200, 2Ig-B7H3-His on CM5 chip, 1:1 fit; * beyond fitting limits. Here is the method:
as §1
Binding Assays: [0143] 1. Antibodies were diluted in HBS-EP buffer (10 mM HEPES, 150 mM NaCl, 3 mM EDTA, 0.05% Surfactant P20, pH 7.4) at varying concentrations (25-50-100-200-400 nM) prior to analysis. […] 2. Samples (60 ul) were injected over the sensor surface at a flow rate of 30 ul/min over 2 min. [0145] 3. Following completion of the association phase, dissociation was monitored in HBS-EP buffer for 10 min at the same flow rate. […] 4. At the end of each cycle, the surface was regenerated using 10 mM NaOH at a flow rate of 50 ul/min over 2×15 sec.

The target of assay [6] is T4, human 2Ig-B7H3 (B7H3-2Ig-His). Briefly: SPR, Biacore T200, 2Ig-B7H3-His on CM5 chip, 1:1 fit; unconjugated 8H9, lot PHB800, Table 3 run.
The target is the same in assay [7]. Briefly: SPR, Biacore T200, 2Ig-B7H3-His on CM5 chip, 1:1 fit; unconjugated 8H9, lot P76501A, Table 5 run.
For assay [8] the target is unchanged. Description: SPR, Biacore T200, 2Ig-B7H3-His on CM5 chip, 1:1 fit; * beyond fitting limits; unconjugated 8H9, lot S219, Table 3 run.
For assay [9] the target is unchanged. Description: SPR, Biacore T200, 2Ig-B7H3-His on CM5 chip, 1:1 fit; * beyond fitting limits; unconjugated 8H9, lot S219, Table 5 run.

B1: 8H9 antibody comprising a light chain according to SEQ ID No.: 2 and heavy chain according to SEQ ID No.: 1 (antibody, mouse IgG1, kappa, V domains shown)
VH: QVQLQQSGAELVKPGASVKLSCKASGYTFTNYDINWVRQRPEQGLEWIGWIFPGDGSTQYNEKFKGKATLTTDTSSSTAYMQLSRLTSEDSAVYFCARQTTATWFAYWGQGTLVTVSA
VL: DIVMTQSPATLSVTPGDRVSLSCRASQSISDYLHWYQQKSHESPRLLIKYASQSISGIPSRFSGSGSGSDFTLSINSVEPEDVGVYYCQNGHSFPLTFGAGTKLELKR
notes: Unconjugated mouse IgG1 mAb; also called m8H9; murine 8H9
B1: the Kd in assay [1] is 0.0011 nM; in assay [3], 0.0016 nM; in [4], 3.18 nM and 3.13 nM; in [6] it was under 0.23 nM; in assay [7] it was under 0.186 nM. Moreover, the dissociation rate constant (koff) in assay [1] was 1e-05 s⁻¹; in assay [3], 1e-05 s⁻¹; in assay [4], 9.11e-05 s⁻¹ and 8.73e-05 s⁻¹; in assay [5] it was 1.1e-07 s⁻¹; in assay [8], under 1e-05 s⁻¹; in [9], under 1e-05 s⁻¹. The kon is 8.9e+06 M⁻¹ s⁻¹ in [1]; 6.5e+06 M⁻¹ s⁻¹ in assay [3]; 28600 M⁻¹ s⁻¹ and 27900 M⁻¹ s⁻¹ in assay [4]. Also, the binding result in assay [2] was “no binding (tested: 3 µg/mL)”. Also, the “t ½” value in assay [4] is 2.11 h and 2.21 h.
